Test results reported in paper PMC9317960 (Biochemical Journal, 2022).

Target: T1, SCRIB PDZ3 K1040A (human, UniProt Q14160 1002-1094, K1040A)
T1 sequence: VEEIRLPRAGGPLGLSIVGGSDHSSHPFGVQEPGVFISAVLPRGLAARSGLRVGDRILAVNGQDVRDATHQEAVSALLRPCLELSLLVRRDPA
Experiment: ITC
Details: both partners purified

LRLESSII [TBEV NS5_CTN peptide (C-terminal PBM of NS5)]
Kd: 12.5 µM
dH: -6.7 kcal/mol
stoichiometry N: 0.9
